Patent US9446124B2, “Targeting of bone marrow neovasculature” (Philogen S.P.A., priority 2009, dated 2016)
Entries after “also recorded” stand apart in the source; their conditions may differ.

Assays:
[1] = system: target tumour cells and endothelial cells; conditions: acts on microtubuli; literature references; cited from earlier work
[2] = system: areas of bone marrow from AML patients with high blast densities; experiment: Multicolour immunofluorescence of AML bone marrow (co-localization with vWF); assay type: binding, human; conditions: biotinylated SIP, 2 μg/mL
Method: Biotinylated antibodies were used in small immunoprotein format (SIP) under identical conditions (2 μg/ml). Aliquots were prepared from a single batch of antibodies, frozen and used only once to ensure reproducibility of immunohistochemical stainings.
Sections of 10 μm thickness were fixed in chilled acetone and blocked with 20% fetal calf serum in PBS. Biotinylated F8-SIP (V5L/K18R) and 4A1-F16-SIP were added onto the sections in a final concentration of 2 μg/mL in 3% bovine serum albumin (BSA)/PBS solution and incubated for one hour. Mouse anti-human vWF (von Willebrandt factor) was used to outline endothelial cells. After washing in PBS, bound primary antibodies were detected with Streptavidin-Alexa Fluor 488 and anti-mouse IgG Alexa Fluor 594 (Invitrogen) were used as secondary antibodies. Nuclei were counterstained with DAPI and images were captured on an Axioskop 2 Mot plus microscope equipped with an AxioCam MRc camera (Zeiss). Human

[3] = system: blood vessels in the bone marrow of AML patients; experiment: Immunohistochemistry of bone marrow biopsies from AML patients; assay type: binding, human; conditions: biotinylated antibody in SIP format, 2 μg/ml, frozen 10 μm sections; FIG. 2
Method: (§1) Immunohistochemistry and immunofluorescence analysis were performed on freshly frozen bone marrow biopsies of patients with acute myeloid leukaemia.
(§2) For immunohistochemistry, biotinylated antibodies were used in small immunoprotein format (SIP) under identical conditions (2 μg/ml). Aliquots were prepared from a single batch of antibodies, frozen and used only once to ensure reproducibility of immunohistochemical stainings. Frozen tissue samples were stored at −80° C. Sections of 10 μm thickness were fixed in chilled acetone, rehydrated in TBS buffer (50 mM Tris, 100 mM NaCl, 0.001% Aprotinin, pH 7.4) and blocked with 20% fetal calf serum in TBS. The antibodies were added onto the sections in a final concentration of 2 μg/mL in 3% bovine serum albumin (BSA)/TBS solution and incubated for one hour. After washing in TBS, bound antibodies were detected with streptavidin-biotinylated alkaline phosphatase complex (Biospa, Milan, Italy) in TBS 3% BSA+2 mM MgCl2. The Fast Red substrate (Sigma) was used for detection of phosphatase activity. Sections were counterstained with Gill's hematoxylin No. 2 (Sigma) and mounted with Glycergel mounting medium (Dako, Glostrup, Denmark).

[4] = system: vessels of HL-60 tumour (granulocytic sarcoma) sections; experiment: Immunohistochemistry of HL-60 tumours from human leukaemia mouse model; assay type: binding; conditions: biotinylated SIP, 2 μg/ml, HL-60 xenograft in nude mice, FIG. 4A
Method: as §2
(§3) The mouse model for human leukaemia used here was previously described in Potter et al. (1984). Specifically, nude mice were xenografted with cells from the HL-60 leukaemia cell line and, after development of HL-60 tumours (granulocytic sarcomas), samples were obtained both from said tumours and from the bone marrow of the mice.
Immunohistochemistry studies were then performed as described under “immunohistochemistry” above.

[5] = system: blood vessels present in the bone marrow biopsies of patients with extramedullary AML; experiment: Immunohistochemistry of bone marrow biopsies from patients with extramedullary AML; assay type: binding, human; conditions: biotinylated antibody in SIP format, 2 μg/ml; two patients; FIG. 3
Method: as §1, §2

healthy bone marrow = experiment: Immunohistochemistry of healthy bone marrow from HL-60 xenografted mice; assay type: binding, nude mice; conditions: biotinylated SIP, 2 μg/ml; bone marrow of the same HL-60 xenografted mice; FIG. 4B
Method: as §2
as §3, with “mice. […]” for “mice.”

Molecule: CC[C@]1(O)C[C@H]2CN(CCc3c([nH]c4ccccc34)[C@@](C(=O)OC)(c3cc4c(cc3OC)N(C)[C@H]3[C@@](O)(C(=O)NN)[C@H](O)[C@]5(CC)C=CCN6CC[C@]43[C@@H]65)C2)C1 [4-desacetyl-3-vinblastine monohydrazide]
- concentration range capable of killing target tumour cells and endothelial cells [1]: picomolar concentration range

Molecule: cemadotin
- concentration range capable of killing target tumour cells and endothelial cells [1]: picomolar concentration range

B1: 4A1-F16-SIP: human monoclonal mini-immunoglobulin specific to the A1 domain of tenascin-C; sequence SEQ ID NO:25 (protein)
chain: EVQLLESGGGLVQPGGSLRLSCAASGFTFSRYGMSWVRQAPGKGLEWVSAISGSGGSTYYADSVKGRFTISRDNSKNTLYLQMNSLRAEDTAVYYCAKAHNAFDYWGQGTLVTVSRGGGSGGGSGGSSELTQDPAVSVALGQTVRITCQGDSLRSYYASWYQQKPGQAPVLVIYGKNNRPSGIPDRFSGSSSGNTASLTITGAQAEDEADYYCNSSVYTMPPVVFGGGTKLTVLSGGSGGPRAAPEVYAFATPEWPGSRDKRTLACLIQNFMPEDISVQWLHNEVQLPDARHSTTQPRKTKGSGFFVFSRLEVTRAEWEQKDEFICRAVHEAASPSQTVQRAVSVNPESSRRGGC
modifications: Synthetic sequence 4A1-F16-SIP amino acid sequence
- co-localization with antibodies specific for von Willebrand Factor (vWF) [2]: excellent co-localization
- staining of blood vessels in bone marrow biopsies of AML patients [3]: strongly stained the blood vessels present in the bone marrow biopsy; also recorded: capable of staining the vast majority of blood vessels
- staining of vessels in HL-60 tumour sections [4]: strongly stained the vessels of the HL-60 tumour sections
- staining of vessels in HL-60 tumour sections ([4]; listed as 4A1-F16 SIP): strongly stained the vessels present in the HL-60 tumour (granulocytic sarcoma) sections
- staining of blood vessels in bone marrow biopsies of extramedullary AML patients [5]: strongly stained the blood vessels present in the bone marrow biopsies in both cases
- staining of healthy bone marrow sections (healthy bone marrow): no staining was visible

B2: F8-SIP (V5L/K18R): human monoclonal mini-immunoglobulin specific to the alternatively spliced EDA domain of fibronectin; sequence SEQ ID NO:26 (protein)
chain: EVQLLESGGGLVQPGGSLRLSCAASGFTFSLFTMSWVRQAPGKGLEWVSAISGSGGSTYYADSVKGRFTISRDNSKNTLYLQMNSLRAEDTAVYYCAKSTHLYLFDYWGQGTLVTVSSGGGGSGGGSGGGGGEIVLTQSPGTLSLSPGERATLSCRASQSVSMPFLAWYQQKPGQAPRLLIYGASSRATGIPDRFSGSGSGTDFTLTISRLEPEDFAVYYCQQMRGRPPTFGQGTKVEIKSGGSGGPRAAPEVYAFATPEWPGSRDKRTLACLIQNFMPEDISVQWLHNEVQLPDARHSTTQPRKTKGSGFFVFSRLEVTRAEWEQKDEFICRAVHEAASPSQTVQRAVSVNPESSRRGGC
modifications: Synthetic sequence F8-SIP (V5L/K18R) amino acid sequence
- staining of blood vessels in bone marrow biopsies of AML patients [3]: also visible, although the level of staining was weaker than that observed with 4A1-F16-SIP; also recorded: stained a large proportion of these blood vessels but fewer than observed with the 4A1-F16-SIP antibody
- staining of vessels in HL-60 tumour sections [4]: strongly stained the vessels of the HL-60 tumour sections; also recorded: strongly stained the vessels present in the HL-60 tumour (granulocytic sarcoma) sections
- staining of blood vessels in bone marrow biopsies of extramedullary AML patients [5]: also visible and was either similar or slightly weaker than the level of staining observed with 4A1-F16-SIP
- staining of healthy bone marrow sections (healthy bone marrow): no staining was visible
